Measured values: article PMC5261807 (2017)
Non-standard residues stand in square brackets, D forms with d. No end group written: not given here. Arg(Me2a) = CN(C)C(=N)NCCC[C@H](N)C(=O)O; Lys(Me3) = C[N+](C)(C)CCCC[C@H](N)C(=O)O; Arg(Me2s) = CN=C(NC)NCCC[C@H](N)C(=O)O; pT = C[C@@H](OP(=O)(O)O)[C@H](N)C(=O)O; Me2a = asymmetric dimethyl (on Arg); Lys(Me2) = CN(C)CCCC[C@H](N)C(=O)O; pS = N[C@@H](COP(=O)(O)O)C(=O)O; Lys(Me) = CNCCCC[C@H](N)C(=O)O

T1: Bdf1 bromodomain 2 (GST-tagged, WT) (Saccharomyces cerevisiae (strain ATCC …, UniProt P35817))
T1 chain: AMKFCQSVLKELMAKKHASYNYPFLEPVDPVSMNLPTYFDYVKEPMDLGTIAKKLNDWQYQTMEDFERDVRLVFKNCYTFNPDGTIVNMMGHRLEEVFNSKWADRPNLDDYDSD

T2: Bdf1 bromodomain 1 (GST-tagged, WT) (Saccharomyces cerevisiae (strain ATCC …, UniProt P35817))
T2 chain: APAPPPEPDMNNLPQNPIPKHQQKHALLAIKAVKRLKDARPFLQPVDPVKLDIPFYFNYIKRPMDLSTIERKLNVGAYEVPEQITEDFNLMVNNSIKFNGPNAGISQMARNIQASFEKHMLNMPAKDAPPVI


Tests used:
[1] = target: T1, Bdf1 bromodomain 2 (GST-tagged, WT); experiment: histone peptide array probed with recombinant GST-bromodomain, signal normalised to myc peptide control
[2] = target: T2, Bdf1 bromodomain 1 (GST-tagged, WT); experiment: as above

binding score [1]	binding score [2]	Binder
0.00364	0.00879	ARTKQTARKSTGGKAPRKQ (A R T Kme1 Q T A Rme2s Kme2 S T G G K A P R K Q)
0.21	0.206	SGRGKGGKGLGKGGAKRHR (S G R G K G G K G L G Kac G G A Kac R H R)
0	0.00789	A[Arg(Me2s)]T[Lys(Me3)]QTA[Arg(Me2s)][Lys(Me3)]STGGKAPRKQ
0	–	ARTKQTA[Arg(Me2a)]K[pS]TGGKAPRKQ
–	0	A[Arg(Me2a)][pT]KQTARKSTGGKAPRKQ
0	–	ARTKQTA[Arg(Me2a)]KS[pT]GGKAPRKQ
0.00305	0.0247	SGRGKGGKGLGKGGAKRHR (S G Rme2a G K G G K G L G K G G A K R H R)
0.0206	0.0231	A[Arg(Me2s)][pT]K(Ac)QTARKSTGGKAPRKQ
0.006	0	ARTKQTARKSTGGKAPRKQ (A R T Kme2 Q T A R K S T G G K A P R K Q)
0.00364	0.000897	ARTKQTARKSTGGKAPRKQ (A R T K Q T A R Kac S T G G K A P R K Q)
0.0345	0.0183	SGRGKGGKGLGKGGAKRHR (S G Rme2a G K G G Kac G L G K G G A K R H R)
0	0	RKSAPATGGVKKPHRYRPG (R K S A P A T G G V Kme2 K P H R Y R P G) [H3 26-45]
0	0.00197	A[Arg(Me2s)]T[Lys(Me3)]QTA[Arg(Me2a)][Lys(Me2)]STGGKAPRKQ
0.00423	0.00323	ARTKQTARKSTGGKAPRKQ (A R T Kac Q T A Rme2a Kme1 S T G G K A P R K Q)
0.00895	0.00161	AR[pT][Lys(Me2)]QTARKSTGGKAPRKQ
0.00895	0	A[Arg(Me2s)]T[Lys(Me3)]QTAR[Lys(Me)]STGGKAPRKQ
0	0.00897	ARTKQTARKSTGGKAPRKQ (A Rme2a T Kme2 Q T A Rme2a Kme1 S T G G K A P R K Q)
0	0	ARTKQTA[Arg(Me2a)][Lys(Me3)][pS]TGGKAPRKQ
0.00285	0.00197	ARTKQTARKSTGGKAPRKQ (A Rme2a T Kme1 Q T A Rme2a Kme3 S T G G K A P R K Q)
0.0237	0.0203	SGRGKGGKGLGKGGAKRHR (S G R G K G G Kac G L G K G G A K R H R)
0.00482	0.00287	ARTKQTARKSTGGKAPRKQ (A R T Kac Q T A Rme2s Kme3 S T G G K A P R K Q)
0	–	ARTKQTAR(Me2a)K(Me)STGGKAPRKQ
